Measurements as given in the DeepSol protein solubility set.

Experiment: soluble on expression in E. coli; label from the status in PepcDB or PDB records

Sequence | soluble on expression in E. coli
MARTEKKKDVVIVGLGWTGAIAGMELAAEGLEIVALERGRDQNTVPEFKYPNQIDELTYGVRLVNMQHPSQQTVTVRRNDAETALPYRSMGSFLPANGVGGAGTHWNGLLWRPQPQEIQLRSYVKERWGESIIPEGMNLMDYPVTYDELEPFFTRFDEVAGISGKAGNLKGKIQPGGNPFEGWRSSEYPMPPMPPTYDATKFRDAAQAMGYHPFPAPAGVASTAYVNPYGMQMAPCNFCGFCERFGCYQYSKSSPQTAILDALKRKPNFSYRTHAEVLRIESSADGKTATGVTYFDAAAQEEVFQPADLVILAAYQLNNVHLLLLSGIGEPYDPATNTGVTGKNYAYQMNGGVTMFFKDANFNPFIGHGSNGFCIDDFSVNQNDFGALGFIGGAYWRSGTFNGQPIRSMILPAGTPGWGAGWKKAIGQWYGHSMSIGTHGSHMAYRANHLDLDPTYKDPHGRPLMRMTFNWQDNDLRMNQYMKLKAGEVGKAMKPDLMQLGFKGPGAMYDVRPYQTTHNTGGHIMSRDPREGVVNRYCQAWDKHNVFVMGAGNFVQNTQYNPTGMVGALAYWTIHAIRTQYLRDPRPLVLEHHHHHH | not soluble
MSLSDLTIQKVESRILDVPLIRPHGFATTTSTEQHILLVSVHLENGVIGYGEGVVPGGPWWGGESVETMKALVDGYLAPVLIGRAVSELAGIMADLERVVARARYAKAAVDVAMHDAWARSLNVPVRDLLGGTVRDKVDVTWALGVLPLDVAVAEIEERIEEFGNRSFKLKMGAGDPAEDTRRVAELAREVGDRVSLRIDINARWDRRTALHYLPILAEAGVELFEQPTPADDLETLREITRRTNVSVMADESVWTPAEALAVVKAQAADVIALKTTKHGGLLESKKIAAIAEAGGLACHGATSLEGPIGTAASLQFAASTKAISYGTELFGPQLLKDTYIVQEFEYKDGQVAIPQGPGLGVDVDMDKVNFYTRKEGHHHHHH | soluble
MFLNGNCLETLKKKEPEGGRRRLSHPGNMGWMRPSQETTPPDRSHHSGFGLFCGDPGPEIEPFSLWVFPQEMVLEIHQLFMDHEYPCHHITSHCTWVAAHWTTSQSCAAWQGCRRACCSTWWKSPAQCTRPTVMSATFETAQEPGPS | not soluble
MAHHHHHHMPPFFEARAEKLMLAAQEECRLLAAQLEKSRAARAASTCGPQGKIRAAPATAPVAATSPPSPRRTYSAATATVAVKGLSIGSSTSTSPDRAGSPSAAPPSASPARVVIPTAATHKEGTLLHLVRGSGLFGSGSRSFVPHYIAVSGSAGISWYASEAEYRQNPSRPLGHADFWIETFNSRGSRFKKAAVCWPLILPDDCPEAKDANKTYFAVDYYTPDEAREQVVLAASSPAERDEWVQLLTKYIDLYLAPRAESEELQHIPRGAEVPLHRSGVIEGEAPGGNIL | soluble
SLPHIITRKVISVEQNWLQQLANAISDPLQLLQQLEIDPSPWQDGFEARKLFAQRVPQSFVDRMQKGNPADPLLRQVLPLSAEFEIHPGYSHDPLDEQNNTVPGLLHKYKNRCLLIVKGGCAINCRYCFRRHFPYEDNKGGKSAWQQSLDYIAQNPQLNEVIFSGGDPLMAKDHEIAWLMERIAAIPHIKRLRIHSRLPVVIPARITDELVELFAQTRLQVLLVTHINHANEINLELKQQMARLRAVNVTLLNQGVLLKGVNDTVDAQVSLSETLFDAGILPYYLHVLDKVQGAAHFYVSDDKARQIMAGLIEQVSGYLVPKLTREIGGRPSKTPLDLHLE | not soluble
MMSLLAVGLVFGLAACSGTSDAKGKIVISGKKFTEQVILTHLLAEYVKANTDLDVEVKDSLGGAFMLQQAIENGDVDMYVEYTGTGYLNILKQPYDPAKTPEQIYNETKKLYKEKYNIAWLKPLGFNNTYALAMRRDLAEKLGVKTYSDLAKHSSSLTFGSDAEFFERSDGYDGLVDTYGFQFKKKVTIDPDLQYEAAKNSEIDVITAYTTDARIKKYDLVVLKDDKQYFPPYHAVPIIRQEVLDANPGLEKKLNKLANILTDEKMMELNGQVNLEGKQPREVALDFLKAEGLID | not soluble
MSEDHHDEEQFDSAESGAAATFPKQCSALRKNEHVMIRGRPCKIVEMSTSKTGKHGHAKVHMVAIDIFTTKKLEDICPSTHNMDVPVVKRREYILMSIEDGFCSLMDPESCELKDDLKMPEGDLGNTIREALEKDEGSVLVQVVAACGEEAILGYKISTKE | not soluble
MKINRHILDNGLRLVHSQDESTQMVALNVLYNVGARDEHPEHTGFAHLFEHLMFGGSVNIPDYDMPLQLAGGENNAWTNNDITNYYLTVPRQNVETGFWLESDRMLSLDFSERSLEVQRGVVMEEFKQRCLNQPYGDVGHLLRPLAYRAHTYQWPTIGKDLSHIANATLEEVKAFFFRFYAPNNAVLAVTGNISFEEAVALTEKWFGPIPRREVPQRNLPQEPEQTEERRLTVERNVPLDSLFMAYHMCSHDHPDYYAFDILSDLLSNGRSSRLNQRLVQQKQLFSSIDAYISGSVDAGLFHISGKPAAGVSLEQAEAAVREELERLQQEPVDEQELEKVKNKFESTQIFGNINYLNVATNLAWFELLGRAEDMEKEVERYRAVTAGQLQKVAQSAFRKENGVILYYKKQIS | not soluble
MKEKISEKEYKALIRKTGKEHFDGEKEEYGDGTVGVWTYELRKYKLKPPVKVKYVTQEQFQEYKDSNNQRLIKIENKVDKLVEIVQIHGEQIKAQGETLQLILQTLQKMSDRLDKMEKRIDKLESK | soluble
QLIAATGCPTGIAHTYMAQEALEQAAKRKGITIKVETHGQIGIENELTPAEIQGAEAVIIAADKDVQAERFAGKRIIDVPVSVGIKEADRLIEEALAGKGSIA | not soluble
MGTFREEGSVSSGTKQEFHTGKLVTTKGDKELLIDNEKVTSGHTTTTRRSCSKVITKTVTNADGRTETTKEVVKSEDGSDCGDADFDWHHTFPSRGNLDDFFHRDKDDFFTRSSHEFDGRTGLAPEFAALGESGSSSSKTSTHSKQFVSSSTTVNRGGSAIESKHF | soluble
MGHHHHHHHHHHSSGHIDDDDKHMTSLLSQFVSKTDFESYEDFQENFKILVPENFNFAYDVVDVYARDSPEKLAMIWCDDYGNEKIFTFKDLKYYSDKAANFFVKHGIGKGDYVMLTLKSRYDFWYCMLGLHKLGAIAVPATHMLKTRDIVYRIEKAGLKMIVCIAEDDVPEQVDEAHAECGDIPLKKAKVGGDVLEGWIDFRKELEESSPIFERPTGEVSTKNEDICLVYFSSGTAGFPKMVEHDNTYPLGHILTAKYWQNVEDDGLHYTVADSGWGKCVWGKLYGQWIAGCAVFVYDYDRFEAKNMLEKASKYGVTTFCAPPTIYRFLIKEDLSHYNFSTLKYAVVAGEPLNPEVFNRFLEFTGIKLMEGFGQTETVVTIATFPWMEPKPGSIGKPTPGYKIELMDRDGRLCEVGEEGEIVINTMEGKPVGLFVHYGKDPERTEETWHDGYYHTGDMAWMDEDGYLWFVGRADDIIKTSGYKVGPFEVESALIQHPAVLECAITGVPDPVRGQVIKATIVLTKDYTPSDSLKNELQDHVKNVTAPYKYPRIIEFVPELPKTISGKIRRVEIRDKDQSQ | soluble
MGSDKIHHHHHHMIIIELNKRQEHIIQIVKDHGPITGESIAAQLGLTRATLRPDLAILTMAGYLEARPRVGYFYTGKTGGQLLSEAVKKIKVQDYQSRPVVIDKNVSVYDAICTMFLEDVGTLFVVDQSTLLVGVVSRKDLLRASLGKQDLTSLPVNIIMTRMPNIAMCRREDSLYDIAMELIERQIDAMPVVKDTKQGLEVVGRITKTNITRAFVNLVNNE | not soluble
MTEQVLFSVSENGVATITLNRPKALNSLSYDMLQPIGQKLKEWEHDERIALIVLKGAGTKGFCAGGDIKTLYEARSNEVALQHAERFFEEEYEIDTYIYQYTKPIIACLDGIVMGGGVGLTNGAKYRIVTERTKWAMPEMNIGFFPDVGAAYFLNKAPGYTGRFVALTASILKASDVLFINAADYFMTSDSLPEFLTELESVNWHKEDDVHTNLKEVIRTFATAPNLESELAPSLEVINSHFAFDTIEEIIHSLEKDESSFALKTKEILLSKSPISLKVTLKQFIDGQDKSVEECFATDLILAKNFMRHEDFFEGVRSVVVDKDQNPNYKYKQLSDVSEEDVNRFFNLLNA | not soluble
MNDYIVVKCGGSMLEQLNDVFFDCIKKLQQQYKVVIVHGGGPEIDAKLKDCNINVEKRDGLRVTPKEVMDVVQMVLCGSTNKKFVMNLQKHNLLAVGCSGCDGKLLQVQPVSEEIGYVGEVSYVETALLKGLINMNYIPVIAPIGIHDNEIYNINADTAAAGIAAALSAKELILITDVDGILHEGKLVKKTDESEIATLIEKGVITGGMIPKVQAALASLKMGVQKISIVNGTKDFTEDTGECIGMTVTRGVSIV | not soluble
MSLQAKIKNKRVLVKFSGEALAGDNQFGIDIHVLDHIAKEIKSLVENDIEVGIVIGGGNIIRGVSAAQGGIIRRTSGDYMGMLATVINAVAMQEALEHIGLDTRVQSAIEIKEICESYIYRKAIRHLEKGRVVIFGAGTGNPFFTTDTAATLRAIEIGSDLIIKATKVDGIYDKDPNKFKDAKKLDTLSYNDALIGDIEVMDDTAISLAKDNKLPIVVCNMFKKGNLLQVIKHQQGVFSMVKEGHHHHHH | soluble
MLQLTLESSFSNTLTVSELNSYVKSTLEEDFLLKRACIKGEISNCTLHKSGHVYFTLKDENSAIDCVMFKPYTKKLDFSPAEGMSVIIKGKVSLYTKTGKYQFYCNEMEKEGLGDLFIKFKKLKEKLESEGLFNEEYKQKIPKYPKNIGIITSPTGAAIRDIIKVTRNRNSSVNLIIYPAVVQGESAAKTVISGISELNKLEKIDLIIIARGGGSMEDLWCFNNESLARAIFESKKPVITGIGHETDFTISDFVSDLRAATPSNAAEIAIYNEYELKSMINNLERMLKNRMKTEISNRSYELDILYSKIEKNSPKSKIEKQKVHVDKIRAQMNHEIKNKISYEVKRFEKSYSLLNAYNPLNVLNKGYSIIQDENEKIISSKSSLNLENDVKITLKDGTVDAHITLKE | not soluble
MELQQLPQHVRDAFHAPNTPPRQLGVAWDYGWRVGNVAFSQVIHPDRSAWSARVRDKLQPQGLRVVRPLKSTDGRYINAGWRANSFEEGTLARRVDETVVAALRLDTALADIDVPDSFSEPDSHDLFSLADHSAWAPEPMVALGVTSDAEAVFLNPAQLTAQRLLPKIVLLLRDIDAPIQVTHADMFATTIYSGNQMPVVTDLVGVARPYGYTAAVCIVDALLAGAVDEGIIDRFSHIQHRDQLLLRALVYRIAVHALHPESTSNTGTNLEWVSQTIMSRASVTL | soluble
MCDKSKTVLDYTIEFLDKYIPEWFETGNKCPLFIFFSGPQGSGKSFTSIQIYNHLMEKYGGEKSIGYASIDDFYLTHEDQLKLNEQFKNNKLLQGRGLPGTHDMKLLQEVLNTIFNNNEHPDQDTVVLPKYDKSQFKGEGDRCPTGQKIKLPVDIFILEGWFLGFNPILQGIENNDLLTGDMVDVNAKLFFYSDLLWRNPEIKSLGIVFTTDNINNVYGWRLQQEHELISKVGKGMTDEQVHAFVDRYMPSYKLYLNDFVRSESLGSIATLTLGIDSNRNVYSTKTRCIE | soluble
GNLSFLATSDGASLAYRLDGAAEKPLLALSNSIGTTLHMWDAQLPALTRHFRVLRYDARGHGASSVPPGPYTLARLGEDVLELLDALEVRRAHFLGLSLGGIVGQWLALHAPQRIERLVLANTSAWLGPAAQWDERIAAVLQAEDMSETAAGFLGNWFPPALLERAEPVVERFRAMLMATNRHGLAGSFAAVRDTDLRAQLARIERPTLVIAGAYDTVTAASHGELIAASIAGARLVTLPAVHLSNVEFPQAFEGAVLSFLGA | not soluble
MAHHHHHHMQYINDEGYRIDGRKNDECRLIKISLGNGNELIDVDGFSFFEIGNTKLFAYIQGPNEYRRPDEKCLVKCNVFLSPFNILEKKRKKSKDNVTREISSYIRNICNHIILLDLYKNSEINIFLYIIERDGGLKAAAVNTCILALIDAGIAIKYFISASSVLYLQNNIIVDGNQFEVNSGSPELTLAIDMSSNNIVLLEFDAEVPIDIFQSMLKTCAQACIHVGNIMKLSIKENAIKLLSLNSILNT | not soluble
